# Measured values taken from patent publication US11466260B2, “Thermostable haloarchaeal inorganic pyrophosphatase” (UNIVERSITY OF FLORIDA RESEARCH FOUNDATION, INCORPORATED, priority 2015, dated 2022).
# Entries after “also recorded” stand apart in the source; their conditions may differ. Read-outs that look alike come from different tables or passages of the source.
# T1: HvPPA (Haloferax volcanii, UniProt D4GT97)
# T1 construct: thrombin-cleavage site (linker between His6 and HvPPA) (N); made in house; host or cells: Haloferax volcanii H26-pJAM2920
# T1 sequence (D4GT97 1-177): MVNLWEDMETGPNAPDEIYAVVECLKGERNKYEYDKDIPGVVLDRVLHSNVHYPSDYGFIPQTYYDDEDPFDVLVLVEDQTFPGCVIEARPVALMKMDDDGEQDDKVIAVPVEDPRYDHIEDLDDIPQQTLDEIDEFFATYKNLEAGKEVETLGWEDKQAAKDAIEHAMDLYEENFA
# B1: HvPPA: Class A type inorganic pyrophosphatase from Haloferax volcanii, amino acid sequence of SEQ ID NO: 2 (protein, listed as Haloferax volcanii)
# chain: T1 sequence (D4GT97 1-177)
# B2: Methanothermobacter thermautotrophicus: Class A type inorganic pyrophosphatase of Methanothermobacter thermautotrophicus (Methanobacterium thermoautotrophicum) (protein, UniProt O26363 1-176, looked up)
# Inorganic pyrophosphatase: MNLWKDIEPGPSVPEVVYAVVEIPKGSRNKYEYHKDLQAFALDRVLYSAVFYPAEYGIIPRTLYDDGDPMDILVLMDEPTFPGCIIESRPIGLLRMIDGGDQDDKILAVPVADPHFADVKDISDIPEHNLKEIANFFETYKKLEGKKTETLGWEGAEKAFEAVNHSIELYRKKYME
# B3: Thermoplasma acidophilum: Class A type inorganic pyrophosphatase of Thermoplasma acidophilum (protein, UniProt P37981 1-179, looked up)
# Inorganic pyrophosphatase: MESFYHSVPVGPKPPEEVYVIVEIPRGSRVKYEIAKDFPGMLVDRVLYSSVVYPVDYGLIPRTLYYDGDPMDVMVLISQPTFPGAIMKVRPIGMMKMVDQGETDNKILAVFDKDPNVSYIKDLKDVNAHLLDEIANFFSTYKILEKKETKVLGWEGKEAALKEIEVSIKMYEEKYGKKN
# B4: Pyrococcus horikoshii: Class A type inorganic pyrophosphatase of Pyrococcus horikoshii (protein, UniProt O59570 1-178, looked up)
# Inorganic pyrophosphatase: MNPFHDLEPGPNVPEVVYALIEIPKGSRNKYELDKETGLLKLDRVLYTPFHYPVDYGIIPRTWYEDGDPFDIMVIMREPTYPLTIIEARPIGLFKMIDSGDKDYKVLAVPVEDPYFKDWKDISDVPKAFLDEIAHFFKRYKELEGKEIIVEGWEGAEAAKREILRAIEMYKEKFGKKE
# Legend:
# HvPPA = target: T1, HvPPA; test: Sodium fluoride-based inhibition of HvPPA; format: biochemical
# Procedure: A) HvPPA (1.3 μg) was assayed in 1 ml reaction volume containing 1 mM PPi, 10 mM MgCl2, 3 M NaCl and 20 mM Tris-Cl buffer pH 7.5 supplemented with NaF as indicated. Reactions were monitored for 15 min at RT.
# HvPPA-mediated hydrolysis of PPi to Pi was determined spectrophotometrically. Reagents were in nanopure water (Barnstead/Thermolyne Nanopure lab water system). Sodium pyrophosphate tetrabasic decahydrate (Sigma Aldrich) was used as a substrate. For kinetic measurements, reaction mixtures (500 μl total) contained 0.5-1 μg HvPPA and 1 mM PPi in high-salt buffer (3 M NaCl and 20 mM Tris-HCl, pH 8.5). Reactions were incubated at 42° C. for 1-3 min. Orthophosphate levels were determined by malachite green assay. Briefly, 2.5 ml of 14% (w/v) (NH4)2MoO4 and 0.2 ml of 11% (v/v) TWEEN 20 ® (Polyoxyethylene sorbitan monolaurate) were added into a 10-ml color reagent I (containing 1.67 ml conc. sulfuric acid, 8.33 ml nanopure H2O, and 12.22 mg malachite green). In triplicate, 50 μl of the color reagent was mixed with 200 μl of the reaction mixture and incubated at room temperature for 10 min. The formation of (MG^+)(H2PMo12O40) (where MG^+ represents ionized malachite green) was monitored at A630. A less sensitive malachite green assay was also used in which reaction aliquots (50 μl) were mixed with 250 μl color reagent II and 10 μl 1.5% (v/v) TWEEN 20 ® (Polyoxyethylene sorbitan monolaurate) in triplicate; product formation was immediately monitored at A650. Color reagent II was generated by mixing 1 volume of 4.2% (w/v) (NH4)2MoO4 in 5 N HCl with 3 volumes of 0.2% (w/v) malachite green; after 30 minutes, the solution was filtered with a 0.45 μm filter and stored at room temperature. Freeze-dried KH2PO4 was used as the standard. Assay mixtures with PPi minus HvPPA were used for individual background subtraction. All proteins used in this assay were buffer-exchanged with Tris-high-salt buffer in nanopure H2O prior to use. All experiments were performed in triplicate and the mean±standard deviation (S.D.) was calculated.
# [1] = PPi assay: HvPPA-mediated hydrolysis of PPi to Pi (malachite green); format: biochemical, Haloferax volcanii; conditions: 25° C.
# [2] = as above; format: biochemical, Haloferax volcanii; conditions: for Temp., optimum: 20 mM Tris-Cl pH 8, 3 M NaCl; for Cation-dependence: EDTA-treated enzyme, 20 mM Tris-Cl pH 8, 2 M NaCl
# Procedure: FIGS. 4A-4D. Effect of pH, temperature, salt and divalent cations on Haloferax volcanii inorganic phyrophosphatase (HvPPA) activity. A-C) HvPPA was equilibrated for 10 min at the pH, temperature, and NaCl concentrations indicated prior to the addition of PPi substrate (100 μM). MgCl2 (10 mM) was included in the activity assays. For pH optimum, assays were supplemented with 3 M NaCl and included 20 mM buffers of sodium acetate at pH 4-5, MES at pH 6-6.5, Tris-Cl at pH 7-9 and CAPS at pH 10. For temperature optimum assays, reactions were in 20 mM Tris-Cl pH 8 supplemented with 3 M NaCl. For salt optimum, HvPPA was diluted from 20 mM Tris-Cl pH 8 containing 3 m NaCl into the same buffer with NaCl concentrations as indicated. D) To test the influence of cations, HvPPA was dialyzed sequentially against 500 ml of buffer (20 mM Tris-Cl pH 8, 2 M NaCl and 1 μM EDTA) (4 h at 4° C.) and the same buffer with EDTA omitted (4 h at 4° C.). Reactions for panel D contained HvPPA (0.93 μg), 20 mM Tris-Cl pH 8, 2 M NaCl and divalent metal at the concentration indicated. Metals used were: CaCl2.2H2O, ZnCl2, CoCl2.6H2O, MnCl2.4H2O, NiCl2.6H2O and MgCl2.6H2O. Reactions were monitored for 10 min at RT unless otherwise indicated.
# (§1) FIGS. 6A-6D. Effect of salt, solvent and temperature on Haloferax volcanii inorganic phyrophosphatase (HvPPA). A) HvPPA thermostability. HvPPA was incubated at 42° C. and 65° C. as indicated with enzyme at 0.093 mg/ml of buffer (20 mM Tris-Cl pH 8, 2.5 mM MgCl2 and 3 M NaCl). HvPPA was diluted to 0.28 μg per 100 μl buffer (with MgCl2 increased to 10 mM) and assayed by addition of 1 mM PPi substrate (10 min, RT). Activity is % relative to samples incubated on ice. B) HvPPA stability in 50% (v/v) solvent. HvPPA was incubated for 2 h (on ice) at 0.47 mg/ml buffer (20 mM Tris-Cl pH 8 and 2 M NaCl) supplemented with solvent as indicated. HvPPA was diluted to 2.4 μg per 100 μl buffer (20 mM Tris-Cl pH 8, 2.5 mM MgCl2 and 2 M NaCl) and assayed by addition of 50 μM PPi substrate (10 min, RT). Activity is % relative to samples incubated with no solvent. C) HvPPA activity in 25% (v/v) solvent. Reactions were 500 μl with 2.8 μg HvPPA, 1.5 M NaCl, 1.5 mM PPi, 10 mM MgCl2. Reaction occurred at 10 minutes at RT. D) HvPPA stability in salt. HvPPA was incubated for 2 h (on ice) at 0.3 mg per ml of buffer (20 mM Tris-Cl pH 8) supplemented with NaCl at the concentrations indicated. HvPPA was diluted to 0.87 μg per 100 μl reaction buffer as in FIG. 6B. Activity is % relative to samples incubated in buffer supplemented with 3M NaCl.
# PPA activity monitored in Tris-salt buffer at 37° C. and pH 8.5 with 0.1 mM PPi for 10 min. U, units defined as μmol product/min. SD, standard deviation of three experiments.
# HvPPA-mediated hydrolysis of PPi to Pi was determined spectrophotometrically. Reagents were in nanopure water (Barnstead/Thermolyne Nanopure lab water system). Sodium pyrophosphate tetrabasic decahydrate (Sigma Aldrich) was used as a substrate. For kinetic measurements, reaction mixtures (500 μl total) contained 0.5-1 μg HvPPA and 1 mM PPi in high-salt buffer (3 M NaCl and 20 mM Tris-HCl, pH 8.5). Reactions were incubated at 42° C. for 1-3 min. Orthophosphate levels were determined by malachite green assay. Briefly, 2.5 ml of 14% (w/v) (NH4)2MoO4 and 0.2 ml of 11% (v/v) TWEEN 20 ® (Polyoxyethylene sorbitan monolaurate) were added into a 10-ml color reagent I (containing 1.67 ml conc. sulfuric acid, 8.33 ml nanopure H2O, and 12.22 mg malachite green). In triplicate, 50 μl of the color reagent was mixed with 200 μl of the reaction mixture and incubated at room temperature for 10 min. The formation of (MG^+)(H2PMo12O40) (where MG^+ represents ionized malachite green) was monitored at A630. A less sensitive malachite green assay was also used in which reaction aliquots (50 μl) were mixed with 250 μl color reagent II and 10 μl 1.5% (v/v) TWEEN 20 ® (Polyoxyethylene sorbitan monolaurate) in triplicate; product formation was immediately monitored at A650. […]
# [3] = Coupled assay of ubiquitin-like protein adenylation; format: biochemical, Haloferax volcanii; conditions: UbaA and HvPPA with ATP and SAMP1, 2 M NaCl, 42° C.
# Procedure: FIGS. 7A-7B. on Haloferax volcanii inorganic phyrophosphatase (HvPPA) activity solvent and coupled adenylation assay at high temperature and low water activity. A) Schematic of the coupled assay. Adenylation of the ubiquitin-like SAMP by the E1-like enzyme (UbaA) was monitored by HvPPA mediated hydrolysis of the PPi (P2O7^4−) by-product to 2 Pi (2 moles HPO4^2−) at 50° C. B) Generation of Pi correlated with the addition of ATP, UbaA, HvPPA and SAMP1 to the assay buffer. ΔGG, C-terminal diglycine residue deletion.
# UbaA-mediated hydrolysis of ATP to AMP and PPi in the presence of the ubiquitin-like SAMP1 was monitored by coupled assay with HvPPA. Proteins were buffer-exchanged with HEPES-salt buffer in Nanopure H2O prior to use. Reaction mixtures (500 μl total) containing 20 μM UbaA, 20 μM SAMP1, 0.5 μM HvPPA, 2.5 mM nucleotide, 2.5 mM MgCl2, 50 μM ZnCl2 in high-salt buffer (2 M NaCl and 50 mM HEPES in Nanopure H2O, pH 7.5) were incubated at 37-42° C. for 1 h. Nucleotides were ATP, AMP, ADP, AMP-PNP, CTP, GTP, TTP and UTP. Proteins were removed by Ultracel-3 centrifugal filtration prior to determining orthophosphate levels by malachite green assay modified as described above. Assay mixtures with nucleotide alone were used for individual background subtraction.
# [4] = format: physicochemical, Haloferax volcanii
# Procedure: as §1
# [5] = cited from earlier work; for Vmax: highest reported
molecule,measurement,setting,value
"F [NaF, sodium fluoride]",Ki,HvPPA; pH 7.5,200 µM
same,Ki,HvPPA; pH 8.5,1800 µM
B1,Vmax,[1],53 U · mg^−1 (25° C.)
same,Hill coefficient(s) (Mg^2+),[1]; Mg^2+,2.62
same,Hill coefficient(s) (PPi),[1]; PPi,"1.4 (PPi, 25° C.)"
same,Substrate(s) hydrolyzed,[2],PPi
same,"hydrolysis of nucleoside triphosphate (ATP, TTP, GTP or CTP) or nucleoside diphosphate (ADP)",[2],did not hydrolyze detectable levels
same,kcat,[2],1050 s⁻¹
same,activity of restored EDTA-treated enzyme versus untreated control,[2]; 2.5 mM MgCl2,half the activity of the untreated control
same,"Temp., optimum",[2],42 °C
same,"Temp., optimum",[2]; listed as HvPPA hexamers,42 °C
same,effect of NaCl on relative activity,[2]; 0.025 to 3 M NaCl,"little, if any, effect; also recorded: fully active"
same,"optimal activity, basic pH","[2]; 3 M NaCl, 10 mM MgCl2, 100 μM PPi, RT",8-9 pH
same,activity in organic solvent compared to no solvent controls,[2]; 25% (v/v) DMSO or DMF,63-94%
same,activity in organic solvent compared to no solvent controls,[2]; 25% (v/v) methanol or ethanol,110-150%
same,"pH, optimum",[2]; 25° C.,pH 8.5 (25° C.)
same,Vmax,"[2]; 25° C., PPi substrate",53 U/mg
same,Vmax,[2]; 42° C.,465 U · mg^−1
same,Vmax,"[2]; 42° C., PPi substrate",465 U/mg
same,Cation-dependence,[2],partially restored by supplementation of the enzyme with Mn^2+ or Mg^2+ ions
same,Cation-dependence,[2]; listed as Haloferax volcanii,"Mg^2+, Mn^2+"
same,Mg^2+ concentration for optimal PPi hydrolyzing activity,[2]; Mg^2+ added to reaction buffer,20 to 40 mM
same,Hill coefficient(s) (Mg^2+),"[2]; Mg^2+, 25° C.","2.6 (Mg^2+, 25° C.)"
same,Hill coefficient(s) (PPi),"[2]; PPi, 42° C.","2.1 (PPi, 42° C.)"
same,effect of removal of divalent cations,[2]; dialysis against the metal chelator EDTA,inactivated
same,Km,"[2]; for Mg^2+, 25° C., listed as Haloferax volcanii, read-out: Km Mg^2+",13400 µM
same,Km,"[2]; for Mg^2+, 25° C., read-out: Km Mg^2+",13000 µM
same,Km,"[2]; for PPi, 25° C., read-out: Km PPi",260 µM
same,Km,"[2]; for PPi, 42° C., read-out: Km PPi",550 µM
same,Inhibitors,HvPPA,NaF
same,Pi detected in coupled adenylation assay,[3],Significant levels of Pi were detected
same,stability when stored in salt,[4],more stable
same,activity remained,"[4]; after 2 h at 42° C., relative to samples on ice",82%
same,Thermal inactivation (half-life),"[4]; buffer, pH 8",2 h
B2,"pH, optimum",[5]; 60° C.,pH 7.7 (60° C.)
same,Hill coefficient(s) (Mg^2+),[5],2.0 (Mg^2+)
same,Hill coefficient(s) (PPi),[5]; PPi,"3.3 (PPi),"
same,Km,"[5]; for Mg^2+, read-out: Km Mg^2+",4900 µM
same,Km,"[5]; for PPi, read-out: Km PPi",160 µM
same,Vmax,[5],570 U · mg^−1
B3,Vmax,[5]; 56° C.,1100 U · mg^−1
same,Hill coefficient(s) (Mg^2+),[5],1.8 (Mg^2+)
same,Km,"[5]; for Mg^2+, read-out: Km Mg^2+",1700 µM
same,Km,"[5]; for PPi, read-out: Km PPi",7 µM
B4,Vmax,[5]; 60° C.,930 U · mg^−1
same,Km,"[5]; for Mg^2+, read-out: Km Mg^2+",300 µM
same,Hill coefficient(s),[5]; in words,Cooperative
same,Substrate(s) hydrolyzed: ADP,[5]; substrate ADP,(2.9%)]
same,Substrate(s) hydrolyzed: ATP,[5]; substrate ATP,ATP (5.9%); ADP
same,Substrate(s) hydrolyzed: P3,[5]; substrate P3,2.7%
